From paper doi:10.1101/2021.06.28.450235

Biological target: CaCl2-washed photosystem II complex (T. elongatus | T. elongatus (endogenous)) (UniProt Q8DIF8)
Experiment: native gel or EMSA

Q: “CaCl2-washed photosystem II complex (from UniProt Q8DIF8 1-461; P0A444 1-344; Q8DIQ1 1-510)” was tested. Which stoichiometry N did it give?
A: The stoichiometry N was 2.
